# Measurements published in paper PMC7538557.
# Molecular target: recombinant SSA (streptococcal superantigen SSA of S. pyogenes HKU16, without the predicted signal peptide) (S. pyogenes HKU16)
substance,measurement,value
"recombinant SSA (streptococcal superantigen SSA of S. pyogenes HKU16, without the predicted signal peptide) (natural protein)",stoichiometry N,2
